Experimental data taken from the supplement of paper PMC10065799, “High-throughput profiling of sequence recognition by tyrosine kinases and SH2 domains using bacterial peptide display” (eLife, 2023).

How the values were obtained:
EPHB2 = EPHB2 (UniProt P29323); test: phosphorylation enrichment, bacterial display (enrichment ratio); higher = better substrate or ligand; peptides without Tyr show the background
FGFR3 = FGFR3 (UniProt P22607); test: as above
c-Abl (mouse) = test: as above
Fes = Fes (UniProt P07332); test: as above
Chain of Fes (P07332 whole entry, looked up): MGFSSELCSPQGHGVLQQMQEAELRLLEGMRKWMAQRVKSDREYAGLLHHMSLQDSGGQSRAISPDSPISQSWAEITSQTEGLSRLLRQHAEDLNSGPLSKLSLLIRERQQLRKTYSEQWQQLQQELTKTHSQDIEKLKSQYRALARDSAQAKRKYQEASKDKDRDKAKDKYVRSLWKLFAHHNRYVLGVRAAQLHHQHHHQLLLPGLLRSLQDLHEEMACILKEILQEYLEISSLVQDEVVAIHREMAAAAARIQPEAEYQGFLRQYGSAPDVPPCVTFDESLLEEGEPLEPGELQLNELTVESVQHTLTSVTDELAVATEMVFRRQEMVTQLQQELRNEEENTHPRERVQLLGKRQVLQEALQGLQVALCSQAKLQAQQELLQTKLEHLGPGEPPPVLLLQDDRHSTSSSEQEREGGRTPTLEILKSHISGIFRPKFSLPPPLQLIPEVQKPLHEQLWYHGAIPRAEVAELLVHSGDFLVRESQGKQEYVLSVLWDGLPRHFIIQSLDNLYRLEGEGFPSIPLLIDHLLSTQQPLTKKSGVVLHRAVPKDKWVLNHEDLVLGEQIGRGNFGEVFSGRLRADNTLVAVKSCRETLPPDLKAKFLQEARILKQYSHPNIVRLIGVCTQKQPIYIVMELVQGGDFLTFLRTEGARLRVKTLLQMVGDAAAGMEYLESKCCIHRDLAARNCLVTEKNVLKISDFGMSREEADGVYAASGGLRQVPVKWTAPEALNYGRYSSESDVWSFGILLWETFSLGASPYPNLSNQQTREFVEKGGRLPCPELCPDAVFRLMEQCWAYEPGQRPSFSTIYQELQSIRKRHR

Fyn = Fyn (UniProt P06241); test: as above
Chain of Fyn (P06241 whole entry, looked up): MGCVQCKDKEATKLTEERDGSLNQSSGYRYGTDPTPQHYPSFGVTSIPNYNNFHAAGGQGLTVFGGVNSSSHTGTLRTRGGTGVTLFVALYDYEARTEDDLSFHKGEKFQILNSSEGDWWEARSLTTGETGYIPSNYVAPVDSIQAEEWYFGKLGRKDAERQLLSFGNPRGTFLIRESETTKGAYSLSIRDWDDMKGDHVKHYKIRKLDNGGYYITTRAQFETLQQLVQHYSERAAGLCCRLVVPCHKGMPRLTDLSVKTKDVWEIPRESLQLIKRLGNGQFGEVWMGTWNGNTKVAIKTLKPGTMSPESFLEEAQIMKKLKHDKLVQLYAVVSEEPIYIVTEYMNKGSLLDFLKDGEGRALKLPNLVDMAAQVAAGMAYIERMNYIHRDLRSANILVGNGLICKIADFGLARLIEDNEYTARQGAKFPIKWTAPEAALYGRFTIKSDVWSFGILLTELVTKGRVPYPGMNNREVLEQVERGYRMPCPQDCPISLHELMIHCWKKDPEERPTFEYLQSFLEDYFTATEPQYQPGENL

Fer (mouse) = test: as above
EPHB1 = EPHB1 (UniProt P54762); test: as above
FGFR1 = FGFR1 (UniProt P11362); test: as above
MERTK = MERTK (UniProt Q12866); test: as above
Chain of MERTK (Q12866 whole entry, looked up): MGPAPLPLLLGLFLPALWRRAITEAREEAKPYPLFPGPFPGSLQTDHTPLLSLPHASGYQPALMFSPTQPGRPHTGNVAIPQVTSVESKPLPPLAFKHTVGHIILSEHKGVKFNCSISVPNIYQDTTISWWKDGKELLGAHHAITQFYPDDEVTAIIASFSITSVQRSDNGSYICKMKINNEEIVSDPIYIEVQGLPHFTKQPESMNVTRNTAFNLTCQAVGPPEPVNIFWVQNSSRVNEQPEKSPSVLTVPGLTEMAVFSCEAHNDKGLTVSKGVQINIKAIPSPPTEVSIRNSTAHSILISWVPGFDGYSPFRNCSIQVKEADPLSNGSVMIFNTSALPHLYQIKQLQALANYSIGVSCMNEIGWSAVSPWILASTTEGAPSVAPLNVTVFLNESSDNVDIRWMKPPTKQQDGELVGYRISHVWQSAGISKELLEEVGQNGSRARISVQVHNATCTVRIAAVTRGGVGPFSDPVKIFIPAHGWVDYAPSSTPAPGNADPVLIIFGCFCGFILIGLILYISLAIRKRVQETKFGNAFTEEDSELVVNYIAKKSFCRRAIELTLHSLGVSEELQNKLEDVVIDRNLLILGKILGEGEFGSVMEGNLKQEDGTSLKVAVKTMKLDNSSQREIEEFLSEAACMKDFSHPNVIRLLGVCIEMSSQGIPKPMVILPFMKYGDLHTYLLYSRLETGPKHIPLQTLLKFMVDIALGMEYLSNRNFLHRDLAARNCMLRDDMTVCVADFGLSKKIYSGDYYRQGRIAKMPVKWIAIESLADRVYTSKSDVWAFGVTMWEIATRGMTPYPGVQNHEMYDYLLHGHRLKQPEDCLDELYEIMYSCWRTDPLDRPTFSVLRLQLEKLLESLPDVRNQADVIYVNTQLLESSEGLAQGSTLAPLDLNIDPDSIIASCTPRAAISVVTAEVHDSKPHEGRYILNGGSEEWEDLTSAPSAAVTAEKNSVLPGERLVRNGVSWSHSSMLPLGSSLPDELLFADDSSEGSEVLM

c-Src = test: as above
Jak2 = Jak2 (UniProt O60674); test: as above
Chain of Jak2 (O60674 whole entry, looked up): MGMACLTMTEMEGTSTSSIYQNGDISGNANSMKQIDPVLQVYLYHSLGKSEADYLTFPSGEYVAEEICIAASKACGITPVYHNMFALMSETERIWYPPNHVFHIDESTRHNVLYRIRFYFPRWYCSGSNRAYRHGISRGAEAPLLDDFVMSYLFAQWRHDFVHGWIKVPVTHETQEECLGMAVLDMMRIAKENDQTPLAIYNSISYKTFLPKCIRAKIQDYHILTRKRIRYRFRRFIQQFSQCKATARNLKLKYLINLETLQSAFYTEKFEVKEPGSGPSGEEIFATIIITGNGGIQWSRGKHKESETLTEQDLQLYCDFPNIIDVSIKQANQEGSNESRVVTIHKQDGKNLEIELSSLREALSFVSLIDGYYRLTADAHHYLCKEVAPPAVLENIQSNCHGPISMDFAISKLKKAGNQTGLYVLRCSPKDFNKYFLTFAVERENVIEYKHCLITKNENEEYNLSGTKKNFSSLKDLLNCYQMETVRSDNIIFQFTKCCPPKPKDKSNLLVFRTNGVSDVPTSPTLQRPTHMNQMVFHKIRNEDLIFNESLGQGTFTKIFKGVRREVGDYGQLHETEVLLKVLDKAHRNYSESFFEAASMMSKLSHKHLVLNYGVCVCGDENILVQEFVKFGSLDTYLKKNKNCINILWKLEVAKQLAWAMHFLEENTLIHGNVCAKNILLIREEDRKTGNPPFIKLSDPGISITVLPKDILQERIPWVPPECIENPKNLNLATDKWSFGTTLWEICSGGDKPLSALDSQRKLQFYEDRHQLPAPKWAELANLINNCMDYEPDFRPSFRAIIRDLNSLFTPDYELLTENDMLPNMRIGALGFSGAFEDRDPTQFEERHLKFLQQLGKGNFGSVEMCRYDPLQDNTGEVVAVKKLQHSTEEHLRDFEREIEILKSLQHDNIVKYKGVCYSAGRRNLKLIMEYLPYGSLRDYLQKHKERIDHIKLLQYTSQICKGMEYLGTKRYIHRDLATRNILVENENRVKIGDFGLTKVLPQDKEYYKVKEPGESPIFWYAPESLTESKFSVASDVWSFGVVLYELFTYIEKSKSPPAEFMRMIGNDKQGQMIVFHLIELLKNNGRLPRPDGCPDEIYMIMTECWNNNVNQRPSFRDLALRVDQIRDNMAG

Hck = Hck (UniProt P08631); test: as above
Chain of Hck (P08631 whole entry, looked up): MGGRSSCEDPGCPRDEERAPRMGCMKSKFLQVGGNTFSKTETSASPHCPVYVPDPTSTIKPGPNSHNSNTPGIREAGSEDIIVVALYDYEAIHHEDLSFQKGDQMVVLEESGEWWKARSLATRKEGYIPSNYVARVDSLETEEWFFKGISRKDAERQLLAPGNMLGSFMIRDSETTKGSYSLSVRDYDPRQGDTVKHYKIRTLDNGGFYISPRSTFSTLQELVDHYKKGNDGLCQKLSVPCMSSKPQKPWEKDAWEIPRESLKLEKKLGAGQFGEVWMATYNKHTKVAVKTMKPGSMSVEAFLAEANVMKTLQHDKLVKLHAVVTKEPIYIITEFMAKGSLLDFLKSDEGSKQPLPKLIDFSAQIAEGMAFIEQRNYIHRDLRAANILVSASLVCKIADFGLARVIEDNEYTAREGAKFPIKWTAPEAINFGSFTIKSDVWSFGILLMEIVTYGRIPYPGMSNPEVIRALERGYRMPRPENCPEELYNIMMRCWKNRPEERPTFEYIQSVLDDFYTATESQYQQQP

AncSZ = test: as above
Grb2 SH2 = Grb2 SH2 (UniProt P62993); test: SH2 binding enrichment of the phosphorylated peptide, bacterial display (enrichment ratio); higher = better substrate or ligand; peptides without Tyr show the background
Chain of Grb2 SH2 (P62993 whole entry, looked up): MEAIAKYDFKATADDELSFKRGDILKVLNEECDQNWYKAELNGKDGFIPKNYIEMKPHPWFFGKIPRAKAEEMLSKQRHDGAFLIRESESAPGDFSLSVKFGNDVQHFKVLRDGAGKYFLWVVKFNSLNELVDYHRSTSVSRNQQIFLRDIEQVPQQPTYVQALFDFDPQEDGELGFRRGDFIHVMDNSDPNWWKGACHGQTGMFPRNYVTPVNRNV

SHP2-C SH2 = test: as above
c-Src SH2 = test: as above
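For SH2 binding enrichment of the phosphorylated peptide, bacterial display in this document: peptide library displayed on the E. coli surface as eCPX fusions, selected cells deep-sequenced, score is each peptide's frequency after selection divided by its frequency in the input.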
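For phosphorylation enrichment, bacterial display in this document: 11-residue human phosphosite peptides and single-mutation variants displayed on the E. coli surface, counted by deep sequencing, each peptide's frequency after selection divided by its frequency in the unselected input library; frequency after pTyr selection over input frequency; kinase dosed for 20-30% of maximal phosphorylation in three min.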

Chain of FGFR3 (P22607 whole entry, looked up): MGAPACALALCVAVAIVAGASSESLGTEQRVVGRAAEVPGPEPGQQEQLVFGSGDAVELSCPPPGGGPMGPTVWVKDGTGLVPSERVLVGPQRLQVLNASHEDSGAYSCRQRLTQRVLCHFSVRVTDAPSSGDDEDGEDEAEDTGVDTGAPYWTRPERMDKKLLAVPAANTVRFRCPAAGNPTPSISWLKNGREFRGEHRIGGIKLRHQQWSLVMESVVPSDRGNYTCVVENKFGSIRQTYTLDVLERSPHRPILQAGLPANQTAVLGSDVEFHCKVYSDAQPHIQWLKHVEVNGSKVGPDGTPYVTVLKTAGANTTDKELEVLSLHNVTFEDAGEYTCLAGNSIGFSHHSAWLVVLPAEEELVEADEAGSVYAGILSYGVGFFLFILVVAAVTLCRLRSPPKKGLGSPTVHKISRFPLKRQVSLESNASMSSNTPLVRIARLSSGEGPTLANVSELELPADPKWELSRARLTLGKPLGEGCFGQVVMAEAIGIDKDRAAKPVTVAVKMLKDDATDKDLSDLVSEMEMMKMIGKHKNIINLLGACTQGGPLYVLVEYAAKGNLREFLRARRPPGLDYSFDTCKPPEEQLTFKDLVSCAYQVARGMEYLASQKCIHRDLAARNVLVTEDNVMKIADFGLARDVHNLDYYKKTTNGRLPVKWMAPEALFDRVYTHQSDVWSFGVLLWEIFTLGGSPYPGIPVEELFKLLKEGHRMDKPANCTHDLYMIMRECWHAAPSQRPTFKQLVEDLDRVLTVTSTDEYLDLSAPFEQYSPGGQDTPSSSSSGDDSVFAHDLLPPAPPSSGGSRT

Sequence	phosphorylation enrichment (EPHB2)	phosphorylation enrichment (FGFR3)	phosphorylation enrichment (c-Abl (mouse))	phosphorylation enrichment (Fes)	phosphorylation enrichment (Fyn)	phosphorylation enrichment (Fer (mouse))	phosphorylation enrichment (EPHB1)	phosphorylation enrichment (FGFR1)	phosphorylation enrichment (MERTK)	phosphorylation enrichment (c-Src)	phosphorylation enrichment (Jak2)	phosphorylation enrichment (Hck)	phosphorylation enrichment (AncSZ)	SH2 binding enrichment (Grb2 SH2)	SH2 binding enrichment (SHP2-C SH2)	SH2 binding enrichment (c-Src SH2)
RKVAQYMLENE [SLC16A6_Y224_E221V]	0.901	0.933	0.506	0.859	0.716	0.861	0.612	0.648	0.465	0.389	1.03	0.718	0.876	0.697	0.617	0.697
PGPQSYPIVTG [PAX5_Y299]	0.538	0.685	0.5	0.736	0.68	0.744	0.484	0.504	0.586	0.4	0.533	0.565	0.611	1	0.861	0.646
DLLMQHPKAQG [FAM83C_Y600_Y600H]	0.332	0.892	1.46	0.693	0.509	0.483	0.515	0.5	0.53	0.646	0.801	0.523	0.566	0.996	0.836	0.466
AGHEEYSAMRD [KRAS_Y64_Q61H]	0.578	0.588	0.616	0.981	0.588	0.43	0.462	0.51	0.532	0.558	0.854	0.542	0.797	0.777	0.713	0.512
IAAEYYDNLPH [DEGS1_Y284]	0.813	5.34	0.808	1.02	0.613	0.874	0.797	7.81	0.917	0.782	0.98	2.42	1.75	0.88	0.542	1.13
NAMRRYIEEFQ [MNS1_Y244]	0.459	0.501	0.541	0.819	0.371	0.417	0.352	0.458	0.346	0.347	0.516	0.413	0.734	0.847	0.585	0.452
KIRDWYQRQRP [KRT14_Y151]	0.463	0.419	0.637	0.635	0.4	0.45	0.405	0.415	0.446	0.502	0.553	0.38	0.621	0.84	0.744	0.523
ILDEAYVMASM [EGFR_Y764_V769M]	0.553	0.62	0.746	1.19	0.539	0.557	0.461	0.525	0.447	0.643	0.965	0.528	1.22	0.66	0.633	0.424
PQAVRYIFTID [DCX_Y103_G100A_YF]	0.59	0.841	0.863	1.76	0.639	0.524	1.29	1.01	0.595	0.385	0.806	0.673	1.15	1.53	3.09	1.54
YRAVKYLQMVG [AVPR2_Y117_C112Y]	0.539	0.653	0.621	0.827	0.397	0.429	0.582	0.552	0.385	0.36	0.766	0.584	0.95	0.709	2.33	0.372
GDLTDYLMKIL [ACTA1_Y190_R185G]	0.476	0.509	0.56	0.821	0.397	0.42	0.508	0.437	0.355	0.323	0.648	0.453	0.788	1.44	1.19	0.711
GIVEDYRPRFF [ACVRL1_Y421_P424R_YF]	0.468	0.655	0.681	0.814	0.372	0.513	0.616	0.467	0.626	0.459	0.816	0.427	0.811	0.985	0.832	0.468
SLFNGYVYSGM [NEIL3_Y71_V76M]	0.579	0.659	0.625	0.994	5.64	0.581	0.653	0.585	0.548	5.4	1.15	2.72	0.844	1.06	2.05	2.6
RLTEGYTGPFK [ZNF862_Y181_I178T]	0.41	0.456	0.426	0.611	0.473	0.382	0.323	0.364	0.402	0.423	0.625	0.509	0.519	1.14	0.547	0.522
RGKEPYTKKAL [TTC21B_Y160]	0.698	0.522	0.933	1.01	0.438	0.299	0.596	0.568	0.724	0.829	0.773	0.436	0.815	0.785	0.78	0.651
EKRDAYVSRLN [GSR_Y150]	0.434	0.441	0.423	0.575	0.351	0.328	0.455	0.418	0.397	0.377	0.48	0.429	0.547	0.772	0.608	0.43
IRTIDYRYTVW [IDS_Y497]	0.566	0.732	0.695	1.16	0.493	0.57	0.666	0.554	0.422	0.398	0.929	0.535	1.15	1.04	1.31	0.985
PQAVTYAEVKH [LILRB4_Y360_K362E]	1.16	0.625	0.763	1.03	5.58	0.804	1.94	0.692	0.617	4.89	0.867	4.17	0.872	0.83	32.9	2.73
NETNKYQISVN [FGB_Y368_A365T]	0.46	0.575	0.57	0.709	0.415	0.375	0.427	0.411	0.418	0.329	0.684	0.412	0.653	0.889	0.581	0.432
TINPIHEHVGF [CHN1_Y143_Y143H_YF]	0.346	0.441	0.477	0.619	0.335	0.397	0.321	0.393	0.328	0.339	0.429	0.299	0.433	0.813	0.757	0.519
GHLFACDWISI [BEST1_Y227_Y227C_YF]	0.522	0.639	0.531	1.01	0.45	0.487	0.408	0.613	0.396	0.386	0.711	0.469	0.937	0.945	0.806	0.749
HNLNFYKKTTN [FGFR3_Y648_D646N_YF]	0.553	2.99	0.642	0.92	0.975	0.806	0.761	0.735	0.605	0.565	0.832	0.572	1.42	0.722	0.632	0.428
VKANTYEKYWL [GATM_Y100_P105L]	0.5	0.541	0.644	0.837	0.668	2.47	0.661	0.582	0.875	0.652	0.733	0.583	0.794	0.993	0.687	1.14
GDFFRSLAEVA [YWHAG_Y133_Y133S_YF]	0.503	0.595	0.721	0.865	0.464	0.438	0.423	0.486	0.357	0.425	0.72	0.405	0.871	0.913	0.696	0.4
REGAKYVSHGA [ASS1_Y113]	0.4	0.501	0.339	0.628	0.378	0.566	0.553	0.385	0.403	0.275	0.47	0.399	0.5	0.602	0.322	0.415
ECKASYPGKIT [PRSS3_Y232]	0.389	0.418	0.489	0.596	0.319	0.396	0.357	0.431	0.402	0.438	0.396	0.323	0.53	0.823	0.56	0.557
IGMIIYFARKA [VCAM1_Y718]	2.23	0.72	0.734	0.957	0.481	0.417	0.487	0.515	0.374	0.449	0.88	1.09	0.9	2.08	1.43	1.03
MIRSAYALRGL [CPS1_Y590_G593R]	0.448	0.527	0.502	0.628	0.39	0.409	0.434	0.474	0.423	0.474	0.543	0.491	0.669	0.731	0.6	0.408
GGFSRYDEGSG [RECQL5_Y484_D480G]	0.558	0.659	0.636	0.928	0.432	0.483	0.431	0.473	0.435	0.416	0.729	0.468	0.733	0.858	0.62	0.459
